The values that follow come from US20250026844A1.

For experiment [1], the target named is human BCMA on cells (human) (UniProt Q02223). As to the kind of experiment: FACS, H929 cells. (In general: In flow cytometry, cells or beads pass a laser one at a time.)
For experiment [2] the target is unchanged. Kind of experiment: FACS, U266 cells.
Experiment [3] has the same target. Kind of experiment: FACS, H929 cells. This is another data set of the same source.
Experiment [4] has the same target. As to the kind of experiment: FACS, U266 cells. This is another data set of the same source.
For experiment [5] the target is unchanged. As to the kind of experiment: FACS, H929 cells. This is another data set of the same source.
Experiment [6] has the same target. Kind of experiment: FACS, U266 cells. This is another data set of the same source.
For experiment [7] the target is unchanged. Kind of experiment: FACS, H929 cells. This is another data set of the same source.
Experiment [8] has the same target. As to the kind of experiment: FACS, U266 cells. This is another data set of the same source.
The target is the same in experiment [9]. Kind of experiment: FACS, Flp-in CHO-human BCMA cells.
Experiment [10] concerns the target monkey BCMA on Flp-inCHO cells (monkey). As to the kind of experiment: FACS, Flp-in CHO-monkey BCMA cells.
Experiment [11] addresses human BCMA-His protein (human) (UniProt Q02223). As to the kind of experiment: ELISA, coated human BCMA-His, antibody 1 nM. (In general: An ELISA detects its analyte on a solid surface through an enzyme-linked reagent.)
Experiment [12] shares this target. Kind of experiment: ELISA, coated human BCMA-His, antibody 10 nM.
For experiment [13], the target named is monkey BCMA-His protein (monkey). As to the kind of experiment: ELISA, coated monkey BCMA-His, antibody 1 nM.
Chain of monkey BCMA-His protein (monkey) (A0A2K5 entry or part of it limits assumed): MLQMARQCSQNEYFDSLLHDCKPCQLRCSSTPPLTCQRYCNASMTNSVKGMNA
Experiment [14] deals with human BCMA-His protein (human) (UniProt Q02223). As to the kind of experiment: ELISA, coated human BCMA-His, antibody 0.1 nM.
Chain of human BCMA-His protein (human) (Q02223 1-54 limits assumed): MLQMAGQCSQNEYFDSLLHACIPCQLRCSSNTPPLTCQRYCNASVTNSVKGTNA
Experiment [15] has the same target. Kind of experiment: ELISA, coated human BCMA-His, antibody 100 nM.
Experiment [16] addresses monkey BCMA-His protein (monkey). As to the kind of experiment: ELISA, coated monkey BCMA-His, antibody 10 nM.
For experiment [17], the target named is human BCMA-His protein (human) (UniProt Q02223). Kind of experiment: ELISA, coated human BCMA-His, antibody 0.01 nM.
For experiment [18], the target named is monkey BCMA-His protein (monkey). As to the kind of experiment: ELISA, coated monkey BCMA-His, antibody 0.1 nM.
Experiment [19] has the same target. Kind of experiment: ELISA, coated monkey BCMA-His, antibody 100 nM.
The target in experiment [20] is human BCMA-His protein (human) (UniProt Q02223). As to the kind of experiment: ELISA, coated human BCMA-His, antibody 0.001 nM.
The target in experiment [21] is monkey BCMA-His protein (monkey). Kind of experiment: ELISA, coated monkey BCMA-His, antibody 0.01 nM.
For experiment [22], the target named is human BCMA-His protein (human) (UniProt Q02223). As to the kind of experiment: ELISA, coated human BCMA-His, antibody 0.0001 nM.
Experiment [23] addresses monkey BCMA-His protein (monkey). Kind of experiment: ELISA, coated monkey BCMA-His, antibody 0.001 nM.
Experiment [24] shares this target. As to the kind of experiment: ELISA, coated monkey BCMA-His, antibody 0.0001 nM.

“And” between values parts separate entries of the source, which are not always exact repeats. Equal values may be shown once.

Chain of human BCMA on cells (human) (Q02223 whole entry): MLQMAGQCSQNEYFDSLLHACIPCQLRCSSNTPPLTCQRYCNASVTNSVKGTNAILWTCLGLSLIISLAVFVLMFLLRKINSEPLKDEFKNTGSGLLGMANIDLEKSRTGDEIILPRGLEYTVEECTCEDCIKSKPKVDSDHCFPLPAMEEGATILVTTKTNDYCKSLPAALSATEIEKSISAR

Regarding “anti-hel-hlgG1 (negative control antibody against hen egg lysozyme)”, the Maximum mean fluorescence intensity in [1] is 110 MFI; in experiment [2], 103 MFI; in experiment [3] it was 99 MFI and 91 MFI and 167 MFI; in [4], 108 MFI and 111 MFI and 119 MFI; in [5] it was 121 MFI; in experiment [6], 124 MFI. The Maximum mean fluorescence intensity is 93 MFI in [7] and 149 MFI in [8]. Further, the Cell mean fluorescence density in experiment [9] came to 54.6 MFI; in [10], 49 MFI. In addition, the OD450 nm in experiment [11] is 0.05 OD450 nm; in experiment [12], 0.07 OD450 nm; in [13], 0.05 OD450 nm; in experiment [14] it was 0.05 OD450 nm; in [15], 0.12 OD450 nm; in experiment [16], 0.06 OD450 nm. Besides, the OD450 nm came out at 0.05 OD450 nm in [17]; 0.05 OD450 nm in [18]; 0.1 OD450 nm in experiment [19]; 0.05 OD450 nm in experiment [20]; 0.04 OD450 nm in experiment [21]; 0.05 OD450 nm in experiment [22]. In addition, the OD450 nm in experiment [23] and in experiment [24] was 0.05 OD450 nm each time.
